{"source": "paper PMC10397244", "about": "“BIK1 protein homeostasis is maintained by the interplay of different ubiquitin ligases in immune signaling” (Nature Communications, 2023)", "binders": {"B1": {"name": "His-FLAG-PUB25 (natural protein, Arabidopsis thaliana, UniProt Q9LT79 1-421, looked up)", "chain": "MPRNIEPLDLGIQIPYHFRCPISLELMQDPVTVCTGQTYDRASIESWVSIGNNTTCPVTRAPLSDFTLIPNHTLRRLIQEWCVANRSNGVERIPTPKQPADPTSVRALLSQASAITGTHVSVRSRAAALRRLRGFARDSDKNRVLIAAHNATEILIKILFSETTSSELVSESLALLVMLPITEPNQFVSISSDPGRVEFLTRLLFDSSIETRVNAAALIEIVSTGTKSADLKGSISNSESVFEGVLDLLRNPISSRRALKIGIKTLFALCSVKSTRHIAITAGAPEILIDRLAADFDRCDTERALATVELLCRTPEGCAAFGEHALTVPLLVKTILRVSDRATEYAAGALLALCTAEERWREEAAGAGVVVQLLLMVQSECTERAKKKAQKLLKLLRDSWPDYNSFANSDDFGCSSQVVPF", "notes": "PUB25, Arabidopsis; CDS subcloned into modified pET28a; also called PLANT U-BOX PROTEIN 25; source: E. coli BL21, purified (Ni-NTA); not shown: FLAG, N-terminal, kept"}, "B2": {"name": "PUB25 (recombinant, in vitro; tag of the experiment not told) (natural protein, Arabidopsis thaliana, UniProt Q9LT79 1-421, looked up)", "chain": "B1 chain", "notes": "PUB25, Arabidopsis; CDS subcloned into His-, GST- or MBP-tag vectors; also called PLANT U-BOX PROTEIN 25; source: E. coli BL21, purified"}, "B3": {"name": "GST-BIK1 (natural protein, Arabidopsis thaliana, UniProt O48814 1-395, looked up)", "chain": "MGSCFSSRVKADIFHNGKSSDLYGLSLSSRKSSSTVAAAQKTEGEILSSTPVKSFTFNELKLATRNFRPDSVIGEGGFGCVFKGWLDESTLTPTKPGTGLVIAVKKLNQEGFQGHREWLTEINYLGQLSHPNLVKLIGYCLEDEHRLLVYEFMQKGSLENHLFRRGAYFKPLPWFLRVNVALDAAKGLAFLHSDPVKVIYRDIKASNILLDADYNAKLSDFGLARDGPMGDLSYVSTRVMGTYGYAAPEYMSSGHLNARSDVYSFGVLLLEILSGKRALDHNRPAKEENLVDWARPYLTSKRKVLLIVDNRLDTQYLPEEAVRMASVAVQCLSFEPKSRPTMDQVVRALQQLQDNLGKPSQTNPVKDTKKLGFKTGTTKSSEKRFTQKPFGRHLV", "notes": "BIK1, Arabidopsis; pGEX-BIK1 (modified pGEX-6P-1); also called BIK1 fused to a GST tag; source: E. coli BL21, purified; immobilised on GSH beads; not shown: GST, N-terminal, kept"}}, "assay_in_all_cases": "pull-down; GST fusion protein or GST immobilised on GSH beads, incubated with purified recombinant protein; 20 mM Tris-HCl pH 7.5, 150 mM NaCl, 3 mM EDTA, 0.5% Triton X-100, 4 C, 2 h; immunoblot", "conditions_in_all_cases": "both partners purified", "key": {"GST-RGLG2": {"target": "T1, GST-RGLG2 (Arabidopsis thaliana, UniProt Q9LY87 1-468)", "T1 construct": "RGLG2, Arabidopsis; CDS subcloned into a GST-tag vector; also called RING DOMAIN LIGASE 2; source: E. coli BL21 (recombinant); immobilised on GSH beads; not shown: GST, N-terminal, kept", "T1 sequence (looked up)": "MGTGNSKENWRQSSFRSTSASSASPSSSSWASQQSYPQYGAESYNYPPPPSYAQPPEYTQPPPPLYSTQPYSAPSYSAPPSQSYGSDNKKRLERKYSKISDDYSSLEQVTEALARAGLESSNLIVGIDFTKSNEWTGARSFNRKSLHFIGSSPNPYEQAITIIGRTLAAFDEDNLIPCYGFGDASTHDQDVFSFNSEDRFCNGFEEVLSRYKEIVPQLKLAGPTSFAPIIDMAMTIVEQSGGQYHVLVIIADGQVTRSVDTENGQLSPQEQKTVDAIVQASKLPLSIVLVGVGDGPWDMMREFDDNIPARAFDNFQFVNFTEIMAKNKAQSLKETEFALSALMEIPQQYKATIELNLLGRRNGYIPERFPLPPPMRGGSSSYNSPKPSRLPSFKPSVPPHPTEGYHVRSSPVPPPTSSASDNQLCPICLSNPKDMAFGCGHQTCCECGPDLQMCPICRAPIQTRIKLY"}, "[1]": {"target": "T2, RGLG1 (recombinant, in vitro; tag of the experiment not told) (Arabidopsis thaliana, UniProt Q9SS90 1-489)", "T2 construct": "RGLG1, Arabidopsis; CDS subcloned into His-, GST- or MBP-tag vectors; also called RING DOMAIN LIGASE 1; source: E. coli BL21, purified", "T2 sequence (looked up)": "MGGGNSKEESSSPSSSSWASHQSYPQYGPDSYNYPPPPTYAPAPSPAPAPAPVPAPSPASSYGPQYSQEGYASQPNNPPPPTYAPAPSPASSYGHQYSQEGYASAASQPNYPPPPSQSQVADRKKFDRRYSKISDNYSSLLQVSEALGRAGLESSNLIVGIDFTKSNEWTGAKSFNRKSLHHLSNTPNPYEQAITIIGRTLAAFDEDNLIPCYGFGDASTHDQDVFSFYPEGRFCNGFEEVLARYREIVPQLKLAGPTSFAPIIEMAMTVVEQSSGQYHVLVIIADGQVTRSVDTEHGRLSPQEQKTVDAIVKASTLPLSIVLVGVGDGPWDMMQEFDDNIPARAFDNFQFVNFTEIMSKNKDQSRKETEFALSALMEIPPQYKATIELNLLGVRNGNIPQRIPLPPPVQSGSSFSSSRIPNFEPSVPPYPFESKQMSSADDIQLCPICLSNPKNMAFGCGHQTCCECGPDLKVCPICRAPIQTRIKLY"}, "His-FLAG-RGLG1": {"target": "T3, His-FLAG-RGLG1 (Arabidopsis thaliana, UniProt Q9SS90 1-489)", "T3 construct": "RGLG1, Arabidopsis; CDS subcloned into modified pET28a; also called RING DOMAIN LIGASE 1; source: E. coli BL21, purified (Ni-NTA); not shown: FLAG, N-terminal, kept", "T3 sequence (looked up)": "T2 sequence (looked up)"}, "[2]": {"target": "T4, RGLG2 (recombinant, in vitro; tag of the experiment not told) (Arabidopsis thaliana, UniProt Q9LY87 1-468)", "T4 construct": "RGLG2, Arabidopsis; CDS subcloned into His-, GST- or MBP-tag vectors; also called RING DOMAIN LIGASE 2; source: E. coli BL21, purified", "T4 sequence (looked up)": "T1 sequence (looked up)"}}}
{"binder": "B1", "values": [{"measurement": "binding result", "setting": "GST-RGLG2", "value": "binds"}]}
{"binder": "B2", "values": [{"measurement": "binding result", "setting": "[1]", "value": "binds"}]}
{"binder": "B3", "values": [{"measurement": "binding result", "setting": "His-FLAG-RGLG1", "value": "binds"}, {"measurement": "binding result", "setting": "[2]", "value": "binds"}]}
